Test results: US8216581 (University of Pennsylvania, dated 2012)
Residue numbers refer to the chain shown, from its start. Names may count otherwise.

Key:
H44L4 full-length IgG = molecular target: T1, H44L4 full-length IgG; assay: peptide ELISA (scheme of FIG. 8)
T1 construct: also called autoanti-GPIIb/IIIa

[1] = molecular target: T2, GPIIb/IIIa on intact human platelets (human, UniProt P08514 32-1039; P05106 27-788); assay: flow cytometry on intact platelets
T2 construct: whole, on cells; also called platelet GPIIb/IIIa; αIIbβ3

immobilized GPIa/IIa = molecular target: T3, immobilized GPIa/IIa (UniProt P17301 30-1181; P05556 21-798); assay: ELISA (PakAuto kit), soluble Fab
T3 construct: Antigen of the PakAuto ELISA kit
Method: Antibodies to platelet GPIIb/IIIa, GPIb/IX, or GPIa/IIa were measured by using a PakAuto kit (GTI, Brookfield, Wis.); those to cardiolipin were assessed with a QuantaLite kit (Inova, San Diego, Calif.).

[2] = molecular target: T4, vitronectin receptor (αvβ3) on CHO cells (UniProt P06756 31-1048; P05106 27-788, limits assumed); assay: flow cytometry on transfected CHO cells
T4 construct: whole, on cells

[3] = molecular target: T2, GPIIb/IIIa on intact human platelets; assay: immunoprecipitation from biotinylated platelets; agrees with ELISA and Glanzmann platelet flow cytometry;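 also: precipitated biotin-labelled platelet membrane proteins visualized with biotinylated horseradish peroxidase-avidin complexes, scored for polypeptides behaving like GPIIb/IIIa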
From the text: Precipitated, biotinylated platelet membrane proteins were detected with biotinylated horseradish peroxidase-avidin complexes (ABC Staining Kit, Pierce).

[4] = molecular target: T5, GPIa/IIa on a stable K562 cell line (UniProt P17301 30-1181; P05556 21-798, limits assumed); assay: flow cytometry on K562 cells expressing GPIa/IIa
T5 construct: whole, on cells; also called K562 cell line expressing GPIa/IIa

T4 sequence (P06756 31-1048 limits assumed, chain 1 of 2): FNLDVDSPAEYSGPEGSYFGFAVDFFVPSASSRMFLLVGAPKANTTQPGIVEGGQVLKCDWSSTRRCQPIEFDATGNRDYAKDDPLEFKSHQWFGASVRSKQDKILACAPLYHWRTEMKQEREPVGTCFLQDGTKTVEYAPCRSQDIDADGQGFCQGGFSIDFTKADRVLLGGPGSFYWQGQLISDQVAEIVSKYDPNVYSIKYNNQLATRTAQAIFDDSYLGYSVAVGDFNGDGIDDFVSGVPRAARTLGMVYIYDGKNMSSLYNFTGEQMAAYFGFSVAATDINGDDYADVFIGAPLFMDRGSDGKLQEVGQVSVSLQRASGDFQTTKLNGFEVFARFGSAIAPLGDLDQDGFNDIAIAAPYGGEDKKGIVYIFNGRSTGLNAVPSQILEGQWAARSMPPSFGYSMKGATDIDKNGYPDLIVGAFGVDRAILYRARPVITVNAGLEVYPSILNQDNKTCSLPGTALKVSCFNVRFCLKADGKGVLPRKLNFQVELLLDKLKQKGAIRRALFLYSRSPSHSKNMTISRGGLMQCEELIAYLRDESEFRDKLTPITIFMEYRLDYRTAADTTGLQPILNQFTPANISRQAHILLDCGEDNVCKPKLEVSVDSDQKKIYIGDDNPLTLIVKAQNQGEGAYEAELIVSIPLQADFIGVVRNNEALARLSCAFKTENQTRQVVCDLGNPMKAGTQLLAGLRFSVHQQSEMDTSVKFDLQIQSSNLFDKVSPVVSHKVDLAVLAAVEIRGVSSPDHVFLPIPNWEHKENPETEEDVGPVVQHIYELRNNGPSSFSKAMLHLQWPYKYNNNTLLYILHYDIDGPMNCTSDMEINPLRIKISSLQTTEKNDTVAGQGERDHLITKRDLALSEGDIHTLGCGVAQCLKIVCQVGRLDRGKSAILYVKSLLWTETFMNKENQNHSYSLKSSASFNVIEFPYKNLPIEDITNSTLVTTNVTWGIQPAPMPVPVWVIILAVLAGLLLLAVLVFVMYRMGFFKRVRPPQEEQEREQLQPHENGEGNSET
T4 sequence (P05106 27-788 limits assumed, chain 2 of 2): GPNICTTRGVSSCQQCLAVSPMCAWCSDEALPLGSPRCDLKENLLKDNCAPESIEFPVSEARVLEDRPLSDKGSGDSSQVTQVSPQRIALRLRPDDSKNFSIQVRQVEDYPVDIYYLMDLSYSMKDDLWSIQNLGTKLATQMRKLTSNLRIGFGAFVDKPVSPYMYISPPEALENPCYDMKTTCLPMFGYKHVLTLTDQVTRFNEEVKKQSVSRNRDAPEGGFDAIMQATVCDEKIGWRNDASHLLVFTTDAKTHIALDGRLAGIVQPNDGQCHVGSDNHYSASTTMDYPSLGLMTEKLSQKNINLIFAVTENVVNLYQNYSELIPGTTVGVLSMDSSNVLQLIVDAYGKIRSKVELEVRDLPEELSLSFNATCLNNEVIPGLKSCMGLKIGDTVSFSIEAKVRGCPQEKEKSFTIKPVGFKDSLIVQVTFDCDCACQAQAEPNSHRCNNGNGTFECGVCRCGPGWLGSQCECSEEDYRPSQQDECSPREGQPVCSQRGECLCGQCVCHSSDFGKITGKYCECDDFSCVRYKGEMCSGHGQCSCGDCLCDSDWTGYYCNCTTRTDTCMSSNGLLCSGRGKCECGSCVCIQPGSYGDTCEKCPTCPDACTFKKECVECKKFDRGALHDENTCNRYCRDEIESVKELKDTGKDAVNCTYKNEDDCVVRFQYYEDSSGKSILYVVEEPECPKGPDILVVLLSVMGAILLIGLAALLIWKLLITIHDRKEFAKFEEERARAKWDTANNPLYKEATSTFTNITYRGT

B1: P4-12 (peptide)
peptide: DLRLNSLIVPWS
notes: From the 12-mer linear phage library; also called 12-mer linear peptide
H44L4 full-length IgG
  binding result: binds

B2: P3-4 (peptide)
peptide: CPSLAHRWC
notes: From the Cys-7-mer-Cys constrained phage library; also called C7C constrained peptide
H44L4 full-length IgG
  binding result: binds

B3: P4-7 (peptide)
peptide: FPLNTIIHSAVY
notes: as for B1
H44L4 full-length IgG
  binding result: binds

B4: P4-2a (peptide)
peptide: CIVPWFFHC
notes: as for B2
H44L4 full-length IgG
  binding result: binds

## CVVPWFFHC [P74-4]
H44L4 full-length IgG
  binding result: binds

## CLVPWMFHC [P73-11]
H44L4 full-length IgG
  binding result: binds

## WSLHTLGLPFVF [P123-10]
H44L4 full-length IgG
  binding result: binds

## CTHWWRPAC [P73-10]
H44L4 full-length IgG
  binding result: binds

## CLIPWMFNC [P74-3]
H44L4 full-length IgG
  binding result: binds

## CTWLPYPYC [P74-9]
H44L4 full-length IgG
  binding result: binds

## CVTSKPHTC [P74-5]
H44L4 full-length IgG
  binding result: binds

## CIIPFMFQC [P73-9]
H44L4 full-length IgG
  binding result: binds

## KHSMPINAILPP [P124-8]
H44L4 full-length IgG
  binding result: binds

## LPFDTIIKPWPV [P123-11]
H44L4 full-length IgG
  binding result: binds

## IDVWWLSTQGVP [P124-1]
H44L4 full-length IgG
  binding result: binds

## CIVEHFFHC [P73-2]
H44L4 full-length IgG
  binding result: binds

## CETWWRLSC [P73-6]
H44L4 full-length IgG
  binding result: binds

## LPFNTLIVPGRT [P124-11]
H44L4 full-length IgG
  binding result: binds

## FPLMSLINPWRT [P124-2]
H44L4 full-length IgG
  binding result: binds

## CQHKLPSNC [P73-7]
H44L4 full-length IgG
  binding result: binds

## CVVQWMFQC [P74-1a]
H44L4 full-length IgG
  binding result: binds

## CVVSWMFQC [P74-8]
H44L4 full-length IgG
  binding result: binds

## FLPISTLITPSG [P123-8]
H44L4 full-length IgG
  binding result: binds

B5: H44L126 (Fab, V domains shown)
VH: QVQLVESGGGVVQPGRSLRLSCAASGFTFSYYAMVWVRQAPGKGLEWVAVISNDGRNKYYADSVKGRFTISRDNAKNTLYLQMNSLRVEDTAVYYCARLGYWGPGTLVTVSS
VL: DIQMTQSPSSLSASVGDRVIVTCRASQSISSYVSWYQQKPGKAPKLLISTTSTLQSGVPSRFSGSASGTDFTLTISSLQPEDFATYYCQQSSSRPLTFGQGTKVEIK
notes: Soluble Fab
[1]
  binding result: no binding

B6: H44L127 (Fab, V domains shown)
VH: B5 VH
VL: DIQMTQSPSSLSASVGDRVTITCRASQTITSFLNWYQQKRGKAPKLLIYGASTLQSGVPSRFSGSGSGTDFTLTISSLQPEDVATYYCQQTYSQPLTFGQGTKVEIK
notes: Soluble Fab
[1]
  binding result: no binding

B7: H44L128 (Fab, V domains shown)
VH: B5 VH
VL: DIQMTQSPSSLSAFVGDRVTITCRASQSITSYLNWYQQKPGKAPNLLIYAASSLQSGVPSRFSGSGSGTEFTLTISSLQPEDYATYYCQQRYSYILTFGQGTKVEIK
notes: Soluble Fab
[1]
  binding result: no binding

B8: H44L4 (Fab, V domains shown)
VH: B5 VH
VL: DIQMTQSPSSLSVSVGDRVTITCRASQTITMYLNWYQQKPGKAPKLLIYAGSSLPSGVPPRFSGSGSGTDFTLTISSLQPEDFATYYCQQSYSTLTFGGGTKVEMK
notes: their results are put here; also called anti-GPIIb/IIIa platelet autoantibody; ITP patient A antibody H44L4
Immobilized GPIa/IIa
  binding result: no binding
[2]
  binding result: no binding

B9: H36L76 (Fab, V domains shown)
VH: QVQLVESGGGVVQPGRSLRLSCAASGFTFSSYAMHWVRQAPGKGLEWVAVISYDGSNKYYADSVKGRFTISRDNSKNTLYLQMNSLRPEDTAVYYCARGGVAAFDYWGQGTLVTVSS
VL: not shown
notes: Soluble Fab, clone B
[3]
  binding result: no binding
[4]
  binding result: no binding

B10: H37L92 (Fab, V domains shown)
VH: B9 VH with S31N
VL: QSALTQPASVSGSPGQSITISCTGTSSDVGGYKYVSWYQQHPGKAPKLIIYDVTNRPSGVSKRFSGSKSGNTASLTISGLQAEDEADYYCSSYTSRSTPVFGGGTKVTVL
notes: Soluble Fab
[3]
  binding result: no binding
[4]
  binding result: no binding

B11: H29L104 (Fab, V domains shown)
VH: EVQLVESGGGLVKPGGSLRLSCAASGFTFSSYSMNWVRQAPGKGLEWVSSISSSSSYIYYADSVKGRFTISRDNAKNSLYLQMNSLRAEDTAVYYCARDHPNYYDSSGLFDYWGQGTLVTVSS
VL: SSELTQDPAVSVALGQTVRITCQGDSLRSYYASWYQQKPGQAPVLVIYGKNYRPSGIPDRFSGSSSGNTASLTITGAQAEDEADYYCNSRDSSGNHWVFGGGTKLTVL
notes: Soluble Fab
[3]
  binding result: no binding
[4]
  binding result: no binding

B12: H10L122 (Fab, V domains shown)
VH: QVQLVQSGAEVKKPGASVKVSCKASGYSFSNYYMHWVRQAPGEGLEWMGIINPKGGTTSYAQKFQGRVTIAADKFTNSAYMEPSSLRYEDTAVYFCARAKFSWSPDIWGQGTVVTVSS
VL: QAVVTQEPSLTVSPGGTVTLTCDSSTGAVTSGHYPYWLQQKPGQAPRTLIYDTHNKHSWTPGRFSGSLLGGKAALTLSGAQPEDEAEYYCSLSYSAVWVFGGGTKLTVL
notes: Soluble Fab
[3]
  binding result: no binding
[4]
  binding result: no binding
